Publication PMC2928861

Columns and labels:
[1] = target: ribosome-nascent chain complex (RNC) of Sec61β, TMD inside the ribosomal tunnel (UniProt P60468); assay: co-IP
[2] = target: ribosomes purified under native conditions from reticulocyte lysate; assay: co-sedimentation

UniProt P60468, sequence (P60468 whole entry, looked up, one chain of several): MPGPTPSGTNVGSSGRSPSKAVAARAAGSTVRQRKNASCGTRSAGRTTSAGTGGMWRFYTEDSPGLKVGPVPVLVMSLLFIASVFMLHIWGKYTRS

Row | Substance | occupancy of RNCs [1] | percent ribosome-bound [2]
1 | Bat3 complex (Bat3, TRC35 and Ubl4A) (from UniProt P46379;Q7L5D6;P11441) | 27% | –
2 | SRP (signal recognition particle), followed by its subunit SRP54 (from UniProt P61011 1-504) (complex) | 7% | 30 to 50%
3 | TRC40 (from UniProt O43681 1-348) (natural protein) | – | < 1%
